One may read the koff as a measure of how fast the partners let go of each other. A higher koff goes with a short-lived complex.

This assay addresses COVID-2019-Spike-328-585 (RBD) (SARS-CoV-2, UniProt P0DTC2 328-585). Briefly: BLI. Background: In BLI a coated tip is dipped into the sample, and binding shifts an interference pattern.

B1: DC-SIGN.Fc (Fc fusion)
chain: QVSKVPSSISQEQSRQDAIYQNLTQLKAAVGELSEKSKLQEIYQELTQLKAAVGELPEKSKLQEIYQELTRLKAAVGELPEKSKLQEIYQELTWLKAAVGELPEKSKMQEIYQELTRLKAAVGELPEKSKQQEIYQELTRLKAAVGELPEKSKQQEIYQELTRLKAAVGELPEKSKQQEIYQELTQLKAAVERLCHPCPWEWTFFQGNCYFMSNSQRNWHDSITACKEVGAQLVVIKSAEEQNFLQLQSSRSNRFTWMGLSDLNQEGTWQWVDGSPLLPSFKQYWNRGEPNNVGEEDCAEFSGNGWNDDKCNLAKFWICKKSAASCSRDEEQFLSPAPATPNPPPA
Molecule B1 gave a koff of 0.000614 s⁻¹.

The record behind these values is publication PMC10331576 (2023).
